What was measured:
[1] = biological target: antagonist MCC 99R I-E^k complex (mouse) (UniProt P04224); assay: cell-based or functional assay
[2] = biological target: agonist MCC I-E^k complex (mouse) (UniProt G3UW40); assay: cell-based or functional assay

Sequence of antagonist MCC 99R I-E^k complex (mouse) (P04224 26-216, one chain of several): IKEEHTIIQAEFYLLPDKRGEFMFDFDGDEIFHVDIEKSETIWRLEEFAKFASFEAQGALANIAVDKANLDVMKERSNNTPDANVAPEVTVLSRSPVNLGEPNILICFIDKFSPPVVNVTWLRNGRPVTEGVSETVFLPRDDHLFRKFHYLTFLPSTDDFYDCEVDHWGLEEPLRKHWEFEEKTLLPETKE

peak cytosolic calcium response, miR-181a T cell blasts [1]: > 2 fold | half-maximal calcium response (EC50), control T cell blasts [2]: 5 peptides | half-maximal calcium response (EC50), miR-181a T cell blasts [2]: 2 peptides
Substance: 5C.C7 TCR

Source: patent US20080200416A1
